Experimental data: PMC5691136, “The role of CXCR3/LRP1 cross-talk in the invasion of primary brain tumors” (Nature Communications, 2017)

Target: CXCR3-A (human CXC chemokine receptor CXCR3, isoform A), stably expressed in U87 cells (human) (UniProt P49682)
Assay: plasmon waveguide resonance (PWR); membrane fragments of U87-CXCR3-A or HEK-CXCR3-A cells captured on the polylysine-treated silica sensor; ligand added incrementally in PBS, 22 °C; shifts of the resonance minimum fitted with a hyperbolic single-site function

Chain of CXCR3-A (human CXC chemokine receptor CXCR3, isoform A), stably expressed in U87 cells (human) (P49682 whole entry, the tested form may be a part, canonical isoform): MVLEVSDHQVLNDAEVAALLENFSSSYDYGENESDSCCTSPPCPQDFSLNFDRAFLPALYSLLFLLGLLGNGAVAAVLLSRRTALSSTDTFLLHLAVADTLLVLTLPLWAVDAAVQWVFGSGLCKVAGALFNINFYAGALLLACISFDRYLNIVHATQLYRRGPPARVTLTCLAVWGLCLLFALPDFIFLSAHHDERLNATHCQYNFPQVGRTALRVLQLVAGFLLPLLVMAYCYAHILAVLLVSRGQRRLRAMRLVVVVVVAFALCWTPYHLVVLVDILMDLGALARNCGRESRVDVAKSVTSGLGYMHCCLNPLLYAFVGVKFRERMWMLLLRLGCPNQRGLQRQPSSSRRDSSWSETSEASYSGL

With PS372424 (CXCR3 agonist) (peptide) the Kd was 36 nM.
